{
  "source": "paper PMC3458246",
  "about": "(Scientific Reports, 2012)",
  "proteins": {"B1": {"name": "Death Associated Protein Kinase 1 (DAPK1) K42W, HA tagged, kinase dead (enzyme, human, UniProt P53355 1-1430, looked up)", "chain": "MTVFRQENVDDYYDTGEELGSGQFAVVKKCREKSTGLQYAAWFIKKRRTKSSRRGVSREDIEREVSILKEIQHPNVITLHEVYENKTDVILILELVAGGELFDFLAEKESLTEEEATEFLKQILNGVYYLHSLQIAHFDLKPENIMLLDRNVPKPRIKIIDFGLAHKIDFGNEFKNIFGTPEFVAPEIVNYEPLGLEADMWSIGVITYILLSGASPFLGDTKQETLANVSAVNYEFEDEYFSNTSALAKDFIRRLLVKDPKKRMTIQDSLQHPWIKPKDTQQALSRKASAVNMEKFKKFAARKKWKQSVRLISLCQRLSRSFLSRSNMSVARSDDTLDEEDSFVMKAIIHAINDDNVPGLQHLLGSLSNYDVNQPNKHGTPPLLIAAGCGNIQILQLLIKRGSRIDVQDKGGSNAVYWAARHGHVDTLKFLSENKCPLDVKDKSGEMALHVAARYGHADVAQLLCSFGSNPNIQDKEEETPLHCAAWHGYYSVAKALCEAGCNVNIKNREGETPLLTASARGYHDIVECLAEHGADLNACDKDGHIALHLAVRRCQMEVIKTLLSQGCFVDYQDRHGNTPLHVACKDGNMPIVVALCEANCNLDISNKYGRTPLHLAANNGILDVVRYLCLMGASVEALTTDGKTAEDLARSEQHEHVAGLLARLRKDTHRGLFIQQLRPTQNLQPRIKLKLFGHSGSGKTTLVESLKCGLLRSFFRRRRPRLSSTNSSRFPPSPLASKPTVSVSINNLYPGCENVSVRSRSMMFEPGLTKGMLEVFVAPTHHPHCSADDQSTKAIDIQNAYLNGVGDFSVWEFSGNPVYFCCYDYFAANDPTSIHVVVFSLEEPYEIQLNQVIFWLSFLKSLVPVEEPIAFGGKLKNPLQVVLVATHADIMNVPRPAGGEFGYDKDTSLLKEIRNRFGNDLHISNKLFVLDAGASGSKDMKVLRNHLQEIRSQIVSVCPPMTHLCEKIISTLPSWRKLNGPNQLMSLQQFVYDVQDQLNPLASEEDLRRIAQQLHSTGEINIMQSETVQDVLLLDPRWLCTNVLGKLLSVETPRALHHYRGRYTVEDIQRLVPDSDVEELLQILDAMDICARDLSSGTMVDVPALIKTDNLHRSWADEEDEVMVYGGVRIVPVEHLTPFPCGIFHKVQVNLCRWIHQQSTEGDADIRLWVNGCKLANRGAELLVLLVNHGQGIEVQVRGLETEKIKCCLLLDSVCSTIENVMATTLPGLLTVKHYLSPQQLREHHEPVMIYQPRDFFRAQTLKETSLTNTMGGYKESFSSIMCFGCHDVYSQASLGMDIHASDLNLLTRRKLSRLLDPPDPLGKDWCLLAMNLGLPDLVAKYNTSNGAPKDFLPSPLHALLREWTTYPESTVGTLMSKLRELGRRDAADFLLKASSVFKINLDGNGQEAYASSCNSGTSYNSISSVVSR"}},
  "biological_target": "the molecule itself",
  "assay": "SEC",
  "data": [
    {"protein": "B1", "values": [
      {"measurement": "stoichiometry N", "result": 2}
    ]}
  ]
}
